According to the supplement of paper PMC9112550, “Optimization of the antimicrobial peptide Bac7 by deep mutational scanning” (BMC Biology, 2022):

Test system: Escherichia coli TOP10
Assay: shrunken log2 fold change of peptide-encoding DNA abundance (4.5 h post-induction vs induction); higher = less antimicrobial activity (less host growth inhibition)
Details: time post-induction: 4.5 h; library: site-saturation at positions 5, 18, 19, 20
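Also: peptides expressed intracellularly from a pBAD plasmid library in pooled LB shake-flask culture, induced with 0.3% L-arabinose, DNA abundance read by NGS, three biological replicates, DESeq2 with apeglm shrinkage.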

| Sequence | shrunken log2 fold change |
| --- | --- |
| RRIRCRPPRLPRPRPRPDYCPRP | 0.25 |
| RRIRYRPPRLPRPRPRPQWIPRP | 0.00701 |
| RRIRSRPPRLPRPRPRPFPPPRP | -0.0275 |
| RRIRNRPPRLPRPRPRPALRPRP | 0.0951 |
| RRIRTRPPRLPRPRPRPDDCPRP | -0.0459 |
| RRIRTRPPRLPRPRPRPCASPRP | 0.184 |
| RRIRERPPRLPRPRPRPRPPPRP | 0.69 |
| RRIRWRPPRLPRPRPRPFFGPRP | 0.352 |
| RRIRPRPPRLPRPRPRPDKMPRP | 0.0748 |
| RRIRYRPPRLPRPRPRPMPIPRP | -0.16 |
| RRIRGRPPRLPRPRPRPYAAPRP | 0.859 |
| RRIRLRPPRLPRPRPRPRDEPRP | 0.162 |
| RRIRGRPPRLPRPRPRPRPPPRP | 1.19 |
| RRIRMRPPRLPRPRPRPWIIPRP | -0.0943 |
| RRIRSRPPRLPRPRPRPLHPPRP | 0.578 |
| RRIRTRPPRLPRPRPRPQSGPRP | 0.00577 |
| RRIRVRPPRLPRPRPRPHVRPRP | -0.0188 |
| RRIRMRPPRLPRPRPRPCYDPRP | 0.0509 |
| RRIRTRPPRLPRPRPRPDYAPRP | 0.0553 |
| RRIRQRPPRLPRPRPRPRLLPRP | 0.0504 |
| RRIRWRPPRLPRPRPRPLGDPRP | 0.598 |
| RRIRYRPPRLPRPRPRPRLCPRP | -0.0154 |
| RRIRVRPPRLPRPRPRPDVTPRP | -0.0394 |
| RRIRFRPPRLPRPRPRPYQKPRP | -1.08 |
| RRIRIRPPRLPRPRPRPHKRPRP | -0.169 |

| Sequence | shrunken log2 fold change |
| --- | --- |
| RRIRWRPPRLPRPRPRPGQYPRP | 0.0716 |
| RRIRMRPPRLPRPRPRPPGMPRP | 1.08 |
| RRIRYRPPRLPRPRPRPYKFPRP | -0.0196 |
| RRIRERPPRLPRPRPRPRVDPRP | 0.0531 |
| RRIRKRPPRLPRPRPRPNCTPRP | 0.335 |
| RRIRRRPPRLPRPRPRPPESPRP | 0.26 |
| RRIRFRPPRLPRPRPRPDIVPRP | -0.0567 |
| RRIRARPPRLPRPRPRPHDMPRP | 0.245 |
| RRIRRRPPRLPRPRPRPQYYPRP | -0.968 |
| RRIRDRPPRLPRPRPRPAFDPRP | 0.284 |
| RRIRCRPPRLPRPRPRPPSCPRP | -0.0847 |
| RRIRARPPRLPRPRPRPGWEPRP | 0.274 |
| RRIRSRPPRLPRPRPRPEISPRP | -0.094 |
| RRIRMRPPRLPRPRPRPDLHPRP | 0.0663 |
| RRIRPRPPRLPRPRPRPDPEPRP | 0.136 |
| RRIRRRPPRLPRPRPRPGKPPRP | 0.293 |
| RRIRDRPPRLPRPRPRPAVNPRP | 0.092 |
| RRIRNRPPRLPRPRPRPWCEPRP | 0.034 |
| RRIRLRPPRLPRPRPRPIHWPRP | 0.143 |
| RRIRLRPPRLPRPRPRPRLRPRP | 0.285 |
| RRIRLRPPRLPRPRPRPICVPRP | 0.151 |
| RRIRERPPRLPRPRPRPSEFPRP | -0.23 |
| RRIRLRPPRLPRPRPRPIKKPRP | 0.0365 |
| RRIRWRPPRLPRPRPRPLKRPRP | 0.612 |
| RRIRKRPPRLPRPRPRPAHNPRP | 0.473 |

| Sequence | shrunken log2 fold change |
| --- | --- |
| RRIRARPPRLPRPRPRPCNEPRP | -0.0554 |
| RRIRHRPPRLPRPRPRPWTFPRP | -0.229 |
| RRIRMRPPRLPRPRPRPHHSPRP | -0.236 |
| RRIRGRPPRLPRPRPRPWCKPRP | -0.184 |
| RRIRSRPPRLPRPRPRPGLRPRP | 0.222 |
| RRIRPRPPRLPRPRPRPFGWPRP | 0.328 |
| RRIRQRPPRLPRPRPRPMLTPRP | -0.185 |
| RRIRSRPPRLPRPRPRPNHPPRP | -0.0712 |
| RRIRERPPRLPRPRPRPEDIPRP | -0.00136 |
| RRIRSRPPRLPRPRPRPAIIPRP | 0.0969 |
| RRIRTRPPRLPRPRPRPMVIPRP | -0.0894 |
| RRIRTRPPRLPRPRPRPNTTPRP | -0.164 |
| RRIRPRPPRLPRPRPRPNEFPRP | -0.0949 |
| RRIRSRPPRLPRPRPRPKSEPRP | 0.0504 |
| RRIRTRPPRLPRPRPRPPKFPRP | -0.025 |
| RRIRKRPPRLPRPRPRPLLVPRP | 0.372 |
| RRIRRRPPRLPRPRPRPMVCPRP | 0.0487 |
| RRIRMRPPRLPRPRPRPEWWPRP | -0.00783 |
| RRIRERPPRLPRPRPRPEFSPRP | -0.178 |
| RRIRVRPPRLPRPRPRPVGPPRP | 0.0843 |
| RRIRGRPPRLPRPRPRPRSNPRP | 0.363 |
| RRIRARPPRLPRPRPRPDSYPRP | -0.111 |
| RRIRGRPPRLPRPRPRPMVSPRP | 0.313 |
| RRIRIRPPRLPRPRPRPCARPRP | 0.039 |
| RRIRARPPRLPRPRPRPMIWPRP | 0.415 |

| Sequence | shrunken log2 fold change |
| --- | --- |
| RRIRVRPPRLPRPRPRPWSNPRP | -0.0426 |
| RRIRMRPPRLPRPRPRPHYWPRP | -0.121 |
| RRIRFRPPRLPRPRPRPCVVPRP | -0.379 |
| RRIRNRPPRLPRPRPRPTCEPRP | -0.0176 |
| RRIRTRPPRLPRPRPRPTQHPRP | 0.22 |
| RRIRDRPPRLPRPRPRPFDHPRP | 0.0299 |
| RRIRKRPPRLPRPRPRPHVRPRP | -0.0167 |
| RRIRPRPPRLPRPRPRPRQFPRP | 0.556 |
| RRIRSRPPRLPRPRPRPGQAPRP | 0.0166 |
| RRIRNRPPRLPRPRPRPDNTPRP | -0.297 |
| RRIRKRPPRLPRPRPRPHWTPRP | -0.0277 |
| RRIRIRPPRLPRPRPRPSDAPRP | -0.0664 |
| RRIRWRPPRLPRPRPRPQCIPRP | -0.0652 |
| RRIRPRPPRLPRPRPRPDDIPRP | -0.0962 |
| RRIRFRPPRLPRPRPRPCSMPRP | -0.343 |
| RRIRYRPPRLPRPRPRPFWCPRP | -0.208 |
| RRIRYRPPRLPRPRPRPQIMPRP | -0.705 |
| RRIRTRPPRLPRPRPRPYQRPRP | -0.0311 |
| RRIRIRPPRLPRPRPRPCPEPRP | -0.644 |
| RRIRRRPPRLPRPRPRPYEEPRP | -0.3 |
| RRIRDRPPRLPRPRPRPPGMPRP | 0.201 |
| RRIRVRPPRLPRPRPRPYFGPRP | -0.0505 |
| RRIRYRPPRLPRPRPRPCHHPRP | -0.12 |
| RRIRWRPPRLPRPRPRPDVHPRP | -0.0103 |
| RRIRNRPPRLPRPRPRPFPAPRP | -0.0844 |

| Sequence | shrunken log2 fold change |
| --- | --- |
| RRIRLRPPRLPRPRPRPAEYPRP | -0.0275 |
| RRIRRRPPRLPRPRPRPFTMPRP | -0.198 |
| RRIRDRPPRLPRPRPRPMLKPRP | 0.111 |
| RRIRCRPPRLPRPRPRPEYGPRP | -0.167 |
| RRIRARPPRLPRPRPRPDLGPRP | 0.438 |
| RRIRERPPRLPRPRPRPSGWPRP | -0.0693 |
| RRIRERPPRLPRPRPRPARKPRP | 0.00472 |
| RRIRRRPPRLPRPRPRPPHGPRP | 0.596 |
| RRIRNRPPRLPRPRPRPPSTPRP | 0.0609 |
| RRIRPRPPRLPRPRPRPMASPRP | 0.011 |
| RRIRQRPPRLPRPRPRPCIPPRP | 0.00582 |
| RRIRGRPPRLPRPRPRPYCQPRP | -0.32 |
| RRIRPRPPRLPRPRPRPIENPRP | -0.414 |
| RRIRTRPPRLPRPRPRPQSPPRP | -0.0309 |
| RRIRERPPRLPRPRPRPQSNPRP | -0.172 |
| RRIRPRPPRLPRPRPRPFMDPRP | -0.248 |
| RRIRARPPRLPRPRPRPTGIPRP | 0.0125 |
| RRIRFRPPRLPRPRPRPVRYPRP | -0.0423 |
| RRIRRRPPRLPRPRPRPADVPRP | 0.146 |
| RRIRHRPPRLPRPRPRPTNCPRP | -0.197 |
| RRIRTRPPRLPRPRPRPWLIPRP | 0.00287 |
| RRIRFRPPRLPRPRPRPWGEPRP | 0.0156 |
| RRIRCRPPRLPRPRPRPHGVPRP | 0.015 |
| RRIRKRPPRLPRPRPRPKGKPRP | 0.302 |
| RRIRYRPPRLPRPRPRPFCFPRP | -0.114 |

| Sequence | shrunken log2 fold change |
| --- | --- |
| RRIRSRPPRLPRPRPRPQYRPRP | -0.234 |
| RRIRNRPPRLPRPRPRPVWHPRP | -0.154 |
| RRIRIRPPRLPRPRPRPVPLPRP | -0.442 |
| RRIRGRPPRLPRPRPRPKAAPRP | 1.26 |
| RRIRFRPPRLPRPRPRPPNNPRP | -0.445 |
| RRIRIRPPRLPRPRPRPKNHPRP | -0.622 |
| RRIRRRPPRLPRPRPRPSSDPRP | 0.0273 |
| RRIRQRPPRLPRPRPRPLEKPRP | -0.0015 |
| RRIRSRPPRLPRPRPRPMTQPRP | -0.116 |
| RRIRYRPPRLPRPRPRPIHNPRP | -0.438 |
| RRIRGRPPRLPRPRPRPCLKPRP | 0.213 |
| RRIRLRPPRLPRPRPRPTAHPRP | 0.0391 |
| RRIRRRPPRLPRPRPRPSGGPRP | 0.318 |
| RRIRTRPPRLPRPRPRPCPYPRP | -0.411 |
| RRIRKRPPRLPRPRPRPFTGPRP | 0.0735 |
| RRIRLRPPRLPRPRPRPQPCPRP | -0.215 |
| RRIRFRPPRLPRPRPRPWVLPRP | -0.0735 |
| RRIRDRPPRLPRPRPRPTMFPRP | 0.0915 |
| RRIRLRPPRLPRPRPRPEIFPRP | 0.161 |
| RRIRERPPRLPRPRPRPKDWPRP | 0.111 |
| RRIRSRPPRLPRPRPRPWWMPRP | -0.0399 |
| RRIRMRPPRLPRPRPRPIFVPRP | -0.111 |
| RRIRNRPPRLPRPRPRPVDDPRP | 0.0318 |
| RRIRRRPPRLPRPRPRPILAPRP | 1.17 |
| RRIRPRPPRLPRPRPRPDMCPRP | 0.00204 |
